Assay results: publication PMC11490884 (The Journal of Biological Chemistry, 2024)

T1: ASAP1 SH3 domain (aa. 1083–1147) (mouse, UniProt Q9QWY8 1083-1147)
T1 sequence (looked up): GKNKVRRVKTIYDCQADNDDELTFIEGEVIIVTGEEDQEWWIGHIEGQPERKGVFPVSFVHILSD


Target: T1, ASAP1 SH3 domain (aa. 1083–1147)
Test: ITC

| Kd [µM] | fold weakening of the interaction against the wild-type gAnkB peptide [fold] | Binder | other results |
| --- | --- | --- | --- |
| ~0.19 | – | GIKKPVRRKLKE (peptide, UniProt Q01484 1699-1710, looked up) [12-residue peptide derived from gAnkB (aa. 1699–1710)] | – |
| – | ~105 | GIKKPVERKLKE (peptide, UniProt Q01484 1699-1710, looked up) [gAnkB peptide R1705E] | – |
| – | ~264 | GIKEPVRRKLKE (peptide, UniProt Q01484 1699-1710, looked up) [gAnkB peptide K1702E] | – |
| – | – | GIKKGVRRKLKE (peptide, UniProt Q01484 1699-1710, looked up) [gAnkB peptide P1703G] | fold decrease of the binding affinity against the wild-type gAnkB peptide: ~3 fold |
| ~0.14 | – | IPPDETQSTQKQHKPSLGIKKPVRRKLKEKQKQKEEGLQASAEKAELKKG (domain or fragment, human, UniProt Q01484 1682-1731, looked up) [gAnkB (aa. 1682–1731)] | – |
